B1: GST-TSG101 UEV domain (residues 2-145) (domain or fragment)
chain: AVSESQLKKMVSKYKYRDLTVRETVNVITLYKDLKPVLDSYVFNDGSSRELMNLTGTIPVPYRGNTYNIPICLWLLDTYPYNPPICFVKPTSSMTIKTGKHVDANGKIYLPYLHEWKHPQSDLLGLIQVMIVVFGDEPPVFSRP
B2: binary TSG101-VPS28 ESCRT-I head subcomplex, wild type (complex)
chain 1: QSENNDIDEVIIPTAPLYKQILNLYAEENAIEDTIFYLGEALRRGVIDLDVFLKHVRLLSRKQFQLRALMQKARKTAGLSD
chain 2: MFHGIPATPGIGAPGNKPELYEEVKLYKNAREREKYDNMAELFAVVKTMQALEKAYIKDCVSPSEYTAACSRLLVQYKAAFRQVQGSEISSIDEFCRKFRLDCPLAMERIKEDRPITIKDDK

Columns and labels:
[1] = molecular target: B2; assay: pull-down
[2] = molecular target: the molecule itself; assay: SEC

Row | binding result [1] | Binder | binding result [2]
1 | binds | B1 | 
2 |  | B2 | binds
